# According to paper doi:10.1101/2024.06.12.598358 (bioRxiv, 2024):
# Like-named read-outs stand apart in the source and are kept apart here. Side chains are listed from the residue outwards. Ends that are not written are not given here. maleimide = maleimide function on the C-terminal Lys
# T1: E. coli ClpS (E. coli, UniProt P0A8Q6 1-106)
# T1 sequence: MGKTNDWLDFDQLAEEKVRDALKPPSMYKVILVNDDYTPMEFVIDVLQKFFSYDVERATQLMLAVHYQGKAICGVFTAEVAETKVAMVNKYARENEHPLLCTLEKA
# B1: Trp-LFVQLASK peptide conjugated to CSGSK^TAMRA (peptide)
# peptide: WLFVQLASK([maleimide-CSGSK(TAMRA)])
# modifications: not fully specified
# B2: Tyr-LFVQLASK peptide conjugated to CSGSK^TAMRA (peptide)
# peptide: YLFVQLASK([maleimide-CSGSK(TAMRA)])
# modifications: not fully specified
# B3: Leu-LFVQLASK peptide conjugated to CSGSK^TAMRA (peptide)
# peptide: LLFVQLASK([maleimide-CSGSK(TAMRA)])
# modifications: not fully specified
# B4: Phe-LFVQLASK peptide conjugated to CSGSK^TAMRA (peptide)
# peptide: FLFVQLASK([maleimide-CSGSK(TAMRA)])
# modifications: not fully specified
# How the values were obtained:
# [1] = target: Phe-LFVQLASK peptide conjugated to CSGSK^TAMRA; assay: fluorescence polarisation
# [2] = target: Trp-LFVQLASK peptide conjugated to CSGSK^TAMRA; assay: fluorescence polarisation
# [3] = target: Tyr-LFVQLASK peptide conjugated to CSGSK^TAMRA; assay: fluorescence polarisation
# [4] = target: Leu-LFVQLASK peptide conjugated to CSGSK^TAMRA; assay: fluorescence polarisation
# [5] = target: 7xHis-SUMO-MtbClpC1 (M. tuberculosis) (UniProt P9WPC9); assay: MST
# Sequence of 7xHis-SUMO-MtbClpC1 (M. tuberculosis) (P9WPC9 whole entry): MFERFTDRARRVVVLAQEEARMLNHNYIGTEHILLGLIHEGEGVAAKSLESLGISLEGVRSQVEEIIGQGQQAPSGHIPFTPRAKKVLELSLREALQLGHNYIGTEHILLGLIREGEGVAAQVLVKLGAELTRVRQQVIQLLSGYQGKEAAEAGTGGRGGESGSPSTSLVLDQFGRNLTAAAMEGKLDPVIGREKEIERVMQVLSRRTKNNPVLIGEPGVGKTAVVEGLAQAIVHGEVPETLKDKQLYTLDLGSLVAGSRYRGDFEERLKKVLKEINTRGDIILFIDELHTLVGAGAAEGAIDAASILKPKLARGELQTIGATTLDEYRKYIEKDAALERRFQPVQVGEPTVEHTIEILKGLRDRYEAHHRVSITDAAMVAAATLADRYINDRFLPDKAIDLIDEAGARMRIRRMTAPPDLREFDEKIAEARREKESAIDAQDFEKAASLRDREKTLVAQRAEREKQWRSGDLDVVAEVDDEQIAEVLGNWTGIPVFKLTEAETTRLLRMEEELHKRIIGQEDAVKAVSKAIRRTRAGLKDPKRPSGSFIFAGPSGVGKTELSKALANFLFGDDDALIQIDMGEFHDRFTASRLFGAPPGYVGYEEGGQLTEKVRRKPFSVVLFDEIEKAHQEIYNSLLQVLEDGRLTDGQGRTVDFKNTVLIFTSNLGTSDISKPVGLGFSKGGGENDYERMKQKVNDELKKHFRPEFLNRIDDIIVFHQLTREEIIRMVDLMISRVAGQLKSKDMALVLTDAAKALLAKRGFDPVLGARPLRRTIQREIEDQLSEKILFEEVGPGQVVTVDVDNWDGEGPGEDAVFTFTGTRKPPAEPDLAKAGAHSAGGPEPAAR
# [6] = target: 7xHis-SUMO-MtbClpC1 (M. tuberculosis) (UniProt P9WPC9); assay: MST; remark: listed apart in the source
# E. coli ClpS = target: T1, E. coli ClpS; assay: fluorescence polarisation
molecule,measurement,setting,value
M. smegmatis ClpS (natural protein),Kd,[1],6.5 µM
same,Kd,[2],11 µM
same,Kd,[3],8.8 µM
same,Kd,[4],42 µM
same,Kd,[5],3.5 µM
same,Kd,[6],100 µM
B1,binding result,E. coli ClpS,binds
B2,binding result,E. coli ClpS,binds
B3,binding result,E. coli ClpS,binds
B4,binding result,E. coli ClpS,binds
